Like-named read-outs stand apart in the source and are kept apart here. [ ]: non-standard residue; d: D form. Phe(4-Ac) = CC(=O)c1ccc(C[C@H](N)C(=O)O)cc1
Key:
Assay in all cases: cell-based or functional assay
[1] = target: T1, G-CSF receptor on M-NFS60 cells (UniProt P40223 26-837, limits assumed)
T1 sequence (looked up): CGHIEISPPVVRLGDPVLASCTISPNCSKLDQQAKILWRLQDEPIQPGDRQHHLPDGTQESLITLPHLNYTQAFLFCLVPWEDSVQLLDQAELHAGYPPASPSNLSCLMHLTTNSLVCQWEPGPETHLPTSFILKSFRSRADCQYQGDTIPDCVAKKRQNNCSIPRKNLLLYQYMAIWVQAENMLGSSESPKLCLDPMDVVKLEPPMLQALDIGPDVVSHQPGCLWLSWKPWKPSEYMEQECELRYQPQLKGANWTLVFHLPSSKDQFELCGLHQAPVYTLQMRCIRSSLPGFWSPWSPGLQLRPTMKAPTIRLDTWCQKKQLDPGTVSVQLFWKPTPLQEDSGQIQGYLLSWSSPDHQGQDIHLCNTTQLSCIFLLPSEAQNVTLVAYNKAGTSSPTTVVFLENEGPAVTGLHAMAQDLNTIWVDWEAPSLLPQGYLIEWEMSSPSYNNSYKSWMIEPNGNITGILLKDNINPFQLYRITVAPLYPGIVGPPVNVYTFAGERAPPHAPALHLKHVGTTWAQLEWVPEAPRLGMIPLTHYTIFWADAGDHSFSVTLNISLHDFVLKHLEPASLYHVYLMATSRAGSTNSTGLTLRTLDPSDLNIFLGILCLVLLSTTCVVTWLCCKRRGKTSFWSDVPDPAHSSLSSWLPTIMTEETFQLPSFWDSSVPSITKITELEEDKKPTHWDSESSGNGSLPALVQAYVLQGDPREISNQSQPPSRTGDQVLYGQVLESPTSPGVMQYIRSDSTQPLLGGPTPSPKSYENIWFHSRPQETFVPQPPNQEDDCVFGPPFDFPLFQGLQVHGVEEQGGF

[2] = target: T1, G-CSF receptor on M-NFS60 cells; remark: listed apart in the source
[3] = target: T1, G-CSF receptor on M-NFS60 cells; remark: listed apart in the source
[4] = target: T1, G-CSF receptor on M-NFS60 cells; remark: listed apart in the source
[5] = target: T1, G-CSF receptor on M-NFS60 cells; remark: listed apart in the source

“Neulasta (pegfilgrastim) (from UniProt P09919 31-204) (ligand)” was tested, and the M-NFS60 proliferation assay, Avg EC50 [ng/ml] [1] was 0.077 ng/mL and the M-NFS60 proliferation assay, Fold Diff EC50 [X] [1] was 3.2 fold.

For “Neupogen (filgrastim) (from UniProt P09919 31-204) (ligand)”, the M-NFS60 proliferation assay, Avg EC50 [ng/ml] [1] was 0.025 ng/mL and the M-NFS60 proliferation assay, Fold Diff EC50 [X] [1] was 1 fold.

B1: 20k PEG-bL3 (bG-CSF L3pAF, 20K PEG) (ligand)
chain: TP[Phe(4-Ac)](PEG 20 kDa)GPARSLPQSFLLKCLEQVRKIQADGAELQERLCAAHKLCHPEELMLLRHSLGIPQAPLSSCSSQSLQLTSCLNQLHGGLFLYQGLLQALAGISPELAPTLDTLQLDVTDFATNIWLQMEDLGAAPAVQPTQGAMPTFTSAFQRRAGGVLVASQLHRFLELAYRGLRYLAEP
modifications: not fully specified (N-terminus)
B1 was tested, and the M-NFS60 proliferation assay, Avg EC50 Values [2] was 0.477 ng/mL.

B2: bG-CSF T133pAF-20K PEG (ligand)
chain: MTPLGPARSLPQSFLLKCLEQVRKIQADGAELQERLCAAHKLCHPEELMLLRHSLGIPQAPLSSCSSQSLQLTSCLNQLHGGLFLYQGLLQALAGISPELAPTLDTLQLDVTDFATNIWLQMEDLGAAPAVQP[Phe(4-Ac)](PEG 20 kDa (hydroxylamine/oxyamino PEG))QGAMPTFTSAFQRRAGGVLVASQLHRFLELAYRGLRYLAEP
For B2, the “M-NFS60 proliferation assay, Avg EC50 [ng/ml] (batch NK2)” value [3] was 0.27 ng/mL, the “M-NFS60 proliferation assay, Fold Diff EC50 [X] vs. WT bG-CSF (batch NK2)” value [4] was 5.1 fold and the “M-NFS60 proliferation assay, Avg EC50 Values (batch NK1)” value [5] was 0.258 ng/mL.

B3: 20k PEG-bR7 (bG-CSF R7pAF, 20K PEG) (ligand)
chain: MTPLGPA[Phe(4-Ac)](PEG 20 kDa)SLPQSFLLKCLEQVRKIQADGAELQERLCAAHKLCHPEELMLLRHSLGIPQAPLSSCSSQSLQLTSCLNQLHGGLFLYQGLLQALAGISPELAPTLDTLQLDVTDFATNIWLQMEDLGAAPAVQPTQGAMPTFTSAFQRRAGGVLVASQLHRFLELAYRGLRYLAEP
For B3, the “M-NFS60 proliferation assay, Avg EC50 Values” [5] was 0.348 ng/mL.

B4: 20k PEG-bR166 (bG-CSF R166pAF, 20K PEG) (ligand)
chain: MTPLGPARSLPQSFLLKCLEQVRKIQADGAELQERLCAAHKLCHPEELMLLRHSLGIPQAPLSSCSSQSLQLTSCLNQLHGGLFLYQGLLQALAGISPELAPTLDTLQLDVTDFATNIWLQMEDLGAAPAVQPTQGAMPTFTSAFQRRAGGVLVASQLHRFLELAY[Phe(4-Ac)](PEG 20 kDa)GLRYLAEP
For B4, the “M-NFS60 proliferation assay, Avg EC50 Values” [5] was 0.363 ng/mL.

B5: wild-type bovine G-CSF (ligand)
chain: MTPLGPARSLPQSFLLKCLEQVRKIQADGAELQERLCAAHKLCHPEELMLLRHSLGIPQAPLSSCSSQSLQLTSCLNQLHGGLFLYQGLLQALAGISPELAPTLDTLQLDVTDFATNIWLQMEDLGAAPAVQPTQGAMPTFTSAFQRRAGGVLVASQLHRFLELAYRGLRYLAEP
B5 was tested, and the “M-NFS60 proliferation assay, Avg EC50 [ng/ml]” value [3] was 0.053 ng/mL and the “M-NFS60 proliferation assay, Fold Diff EC50 [X]” value [4] was 1 fold.

B6: 20k PEG-bS62 (bG-CSF S62pAF, 20K PEG) (ligand)
chain: MTPLGPARSLPQSFLLKCLEQVRKIQADGAELQERLCAAHKLCHPEELMLLRHSLGIPQAPL[Phe(4-Ac)](PEG 20 kDa)SCSSQSLQLTSCLNQLHGGLFLYQGLLQALAGISPELAPTLDTLQLDVTDFATNIWLQMEDLGAAPAVQPTQGAMPTFTSAFQRRAGGVLVASQLHRFLELAYRGLRYLAEP
With B6 the “M-NFS60 proliferation assay, Avg EC50 Values” [5] was 0.15 ng/mL.
